Laboratory results reported in patent US20090092595A1, “Suppression of sPLA2-integrin binding for treating an inflammatory condition” (REGENTS OF THE UNIVERSITY OF CALIFORNIA, priority 2007, published 2009).

Biological target: T1, α4β1 binding to VCAM-1 (Homo sapiens, UniProt P05556+P13612)
T1 construct: integrin α4β1, a major integrin in U937 cells; endogenous in cells; host or cells: U937
Experiment: Adhesion of U937 cells to VCAM-1 in the presence of sPLA2-IIA
Assay type: cell-based
Settings: increasing concentrations of sPLA2-IIA, 1 h, 37° C.
Protocol: FIG. 5. sPLA2-IIA binding to integrin α4β1. a) Cells expressing recombinant α4β1 adhered to wt sPLA2-IIA better than cells expressing other recombinant integrins. We used transfected K562 cells clonally express different human integrins for adhesion assays. Low background adhesion to BSA was subtracted. […] Wells of 96-well microtiter plate were coated with VCAM-1 and FN-GST, and incubated with U937 cells (1×10^4 cells/plate) in the presence of the increasing concentrations of sPLA2-IIA for 1 h at 37° C. Adherent cells were quantified using endogenous phosphatase after gently rinsing the well to remove unbound cells. Data is shown as means+/−SEM of triplicate experiments. *P=0.0101 and **P<0.0001 by t-test. c) Amino acid sequence in the α4 subunit that is critical for VCAM-1 and CS-1 binding is also critical for sPLA2-IIA binding. CHO cells that clonally express wt or mutant α4 (Irie, A. et al., Embo J, 14(22): 5550-5556 (1995)) were used for adhesion assays. Data is shown as means+/−SEM of triplicate experiments. Similar results were obtained using K562 cells expressing α4 mutants (not shown).
Other methods We performed docking simulation of interaction between sPLA2-IIA and integrin αvβ3 using the AutoDock3 as previously described (Mori, S. et al., J Biol Chem, in press (2008)). […]

T1 sequence (P13612 34-1032): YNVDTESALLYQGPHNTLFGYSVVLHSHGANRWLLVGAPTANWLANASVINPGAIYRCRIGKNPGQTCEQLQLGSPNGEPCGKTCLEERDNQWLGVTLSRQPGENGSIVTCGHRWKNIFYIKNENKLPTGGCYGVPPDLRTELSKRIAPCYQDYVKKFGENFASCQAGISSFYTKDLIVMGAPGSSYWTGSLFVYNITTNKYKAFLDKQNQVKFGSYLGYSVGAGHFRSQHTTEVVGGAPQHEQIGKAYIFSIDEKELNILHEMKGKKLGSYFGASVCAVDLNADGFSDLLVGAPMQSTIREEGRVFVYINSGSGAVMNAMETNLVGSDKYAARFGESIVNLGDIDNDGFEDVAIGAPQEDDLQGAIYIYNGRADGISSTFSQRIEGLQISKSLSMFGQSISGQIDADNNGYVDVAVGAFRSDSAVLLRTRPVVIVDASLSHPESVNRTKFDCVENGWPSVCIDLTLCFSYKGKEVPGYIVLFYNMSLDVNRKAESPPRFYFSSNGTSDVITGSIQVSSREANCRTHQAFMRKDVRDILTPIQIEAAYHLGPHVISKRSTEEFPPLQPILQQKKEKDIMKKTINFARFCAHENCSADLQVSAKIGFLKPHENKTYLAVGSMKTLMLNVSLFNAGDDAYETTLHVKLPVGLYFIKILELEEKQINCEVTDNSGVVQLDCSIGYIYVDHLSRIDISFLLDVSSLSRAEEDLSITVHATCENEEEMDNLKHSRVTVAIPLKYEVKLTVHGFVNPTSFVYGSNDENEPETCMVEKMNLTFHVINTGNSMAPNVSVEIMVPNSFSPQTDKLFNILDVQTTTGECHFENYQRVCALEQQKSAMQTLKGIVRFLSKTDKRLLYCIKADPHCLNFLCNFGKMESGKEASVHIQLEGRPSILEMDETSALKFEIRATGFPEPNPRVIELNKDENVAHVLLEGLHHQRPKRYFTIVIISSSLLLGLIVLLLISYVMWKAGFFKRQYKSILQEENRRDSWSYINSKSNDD
T1 sequence (P05556 21-798): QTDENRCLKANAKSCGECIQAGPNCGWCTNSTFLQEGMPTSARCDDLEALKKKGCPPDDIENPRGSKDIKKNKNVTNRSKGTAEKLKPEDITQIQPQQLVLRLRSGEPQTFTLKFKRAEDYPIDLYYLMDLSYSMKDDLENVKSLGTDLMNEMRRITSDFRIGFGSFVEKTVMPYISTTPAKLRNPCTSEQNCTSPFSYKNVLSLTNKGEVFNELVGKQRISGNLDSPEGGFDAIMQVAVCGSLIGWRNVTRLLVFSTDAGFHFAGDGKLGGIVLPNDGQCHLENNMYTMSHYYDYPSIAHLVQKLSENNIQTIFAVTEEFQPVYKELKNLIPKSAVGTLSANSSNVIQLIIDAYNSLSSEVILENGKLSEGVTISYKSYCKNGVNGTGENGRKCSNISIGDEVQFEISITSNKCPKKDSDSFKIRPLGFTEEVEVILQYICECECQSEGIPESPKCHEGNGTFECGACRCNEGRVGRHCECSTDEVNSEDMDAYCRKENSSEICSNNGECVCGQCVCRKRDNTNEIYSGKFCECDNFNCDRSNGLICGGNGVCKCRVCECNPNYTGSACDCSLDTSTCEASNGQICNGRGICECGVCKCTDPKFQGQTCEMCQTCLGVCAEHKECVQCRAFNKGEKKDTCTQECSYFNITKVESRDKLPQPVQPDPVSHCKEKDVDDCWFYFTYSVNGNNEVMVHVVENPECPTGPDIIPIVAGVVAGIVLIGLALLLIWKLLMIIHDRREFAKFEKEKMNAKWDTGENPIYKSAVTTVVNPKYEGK

B1: wt sPLA2-IIA: Secretory phospholipase A2 group IIA, wild type, recombinant from bacteria BL21, refolded (protein)
chain: NLVNFHRMIKLTTGKEAALSYGFYGCHCGVGGRGSPKDATDRCCVTHDCCYKRLEKRGCGTKFLSYKFSNSGSRITCAKQDSCRSQLCECDKAAATCFARNKTTYNKKYQYYSNKHCRGSTPRC
modifications: left off: small tags and cut ends
  adhesion of U937 cells to VCAM-1: suppressed adhesion
